US20130133089A1 (MEDICAL RESEARCH INFRASTRUCTURE AND HEALTH SERVICES FUND OF …, published 2013)
Read-outs that look alike come from different tables or passages of the source.

Columns and labels:
[1] = biological target: T1, Recombinant human leptin binding domain (hLBD) (human, UniProt P48357 428-635, biotinylated with Sulfo-NHS-LC-Biotin in the yeast display assays; not labelled when immobilized in the plate binding assay); test: competitive plate binding assay: immobilized hLBD, biotinylated mouse leptin as ligand, mutein as competitor
T1 construct: CRH2 sub-domain of the leptin receptor; Prepared in the applicants' laboratory; also called soluble human leptin receptor; CHR2
T1 sequence (looked up): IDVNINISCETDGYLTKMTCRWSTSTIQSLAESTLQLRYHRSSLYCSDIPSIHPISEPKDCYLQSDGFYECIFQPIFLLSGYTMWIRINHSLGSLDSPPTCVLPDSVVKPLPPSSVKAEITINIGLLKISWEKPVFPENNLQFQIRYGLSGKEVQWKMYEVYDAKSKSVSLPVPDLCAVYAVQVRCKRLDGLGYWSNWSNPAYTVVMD
Description: (§1) Biotinylated mouse leptin served as the ligand in all competitive experiments and the respective mouse leptin or mouse or human leptin antagonist muteins as competitors. The hLBD was used as the receptor source. Polystyrene 96-well microtiter plates were coated overnight at 4° C. with 100 μl of 40 μM hLBD in PBS pH 7.4. Wells were then washed one time with PBST (PBS containing 0.05 Tween 20) and blocked with PBS containing 3% skim milk for two hours in room temperature. All further incubations were carried out at room temperature. Wells were washed one time with PBST and incubated with different concentrations of un-labeled leptins (50 μl/well) for 30 min and then 50 μl of 62.5 μM of biotinylated mouse leptin were added to each well for another two hours. Then the wells were washed three times with PBST and incubated with 1:30,000 streptavidin-HRP in PBS containing 1 Tween 20 for one hour. Subsequently the wells were washed three times with PBST and the reaction was quantified in 450 nm by microplate reader ELISA Plate Reader ELx808—Bio-Tek Instrument Inc. (Winooski, Vt., USA) using TMB according to manufacturer's instructions.

[2] = biological target: T1, Recombinant human leptin binding domain …; test: yeast display, flow cytometry titration with biotinylated hLBD (FIG. 4A)
Text: (§2) Those 7 mouse leptin mutants were selected for preparation of respectively mutated leptins expressed in E. coli.

[3] = biological target: T1, Recombinant human leptin binding domain …; test: yeast display, flow cytometry titration with biotinylated hLBD (FIG. 4B)
Text: as §2

[4] = biological target: long form of human leptin receptor (hLEPR) on BAF/3 or H-49 (HEK-293) cells (human), P48357; test: cell-based or functional assay
Chain of long form of human leptin receptor (hLEPR) on BAF/3 or H-49 (HEK-293) cells (human), P48357 (P48357 22-1165): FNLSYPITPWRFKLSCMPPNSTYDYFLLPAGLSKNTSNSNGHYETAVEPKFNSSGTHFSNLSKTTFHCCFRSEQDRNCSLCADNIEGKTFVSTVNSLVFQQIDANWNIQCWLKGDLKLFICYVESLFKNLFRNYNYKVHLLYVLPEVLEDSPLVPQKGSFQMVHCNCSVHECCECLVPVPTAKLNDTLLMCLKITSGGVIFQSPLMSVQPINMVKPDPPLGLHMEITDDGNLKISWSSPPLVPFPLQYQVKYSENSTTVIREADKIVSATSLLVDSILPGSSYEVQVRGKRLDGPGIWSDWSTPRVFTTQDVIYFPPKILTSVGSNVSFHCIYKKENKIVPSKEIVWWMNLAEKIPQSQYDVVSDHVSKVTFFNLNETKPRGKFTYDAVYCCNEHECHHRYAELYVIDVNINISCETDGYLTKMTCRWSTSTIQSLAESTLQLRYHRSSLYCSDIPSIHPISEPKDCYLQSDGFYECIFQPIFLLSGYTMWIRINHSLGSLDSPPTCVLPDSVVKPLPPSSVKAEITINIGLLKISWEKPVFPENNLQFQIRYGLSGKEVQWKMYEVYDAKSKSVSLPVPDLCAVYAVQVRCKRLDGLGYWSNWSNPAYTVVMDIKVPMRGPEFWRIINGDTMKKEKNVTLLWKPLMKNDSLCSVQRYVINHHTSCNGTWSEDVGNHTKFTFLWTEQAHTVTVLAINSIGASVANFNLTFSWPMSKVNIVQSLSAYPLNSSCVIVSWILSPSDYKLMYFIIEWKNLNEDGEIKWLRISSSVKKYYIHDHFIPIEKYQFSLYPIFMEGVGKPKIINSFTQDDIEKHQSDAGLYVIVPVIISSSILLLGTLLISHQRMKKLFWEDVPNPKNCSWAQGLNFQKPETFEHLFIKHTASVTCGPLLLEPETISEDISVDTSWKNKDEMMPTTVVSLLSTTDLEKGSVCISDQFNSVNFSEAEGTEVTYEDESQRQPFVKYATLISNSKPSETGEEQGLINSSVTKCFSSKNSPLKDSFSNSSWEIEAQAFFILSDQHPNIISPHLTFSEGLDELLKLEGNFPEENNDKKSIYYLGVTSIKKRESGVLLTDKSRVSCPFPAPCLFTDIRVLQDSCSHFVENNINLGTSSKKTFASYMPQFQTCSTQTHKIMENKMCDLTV

[5] = biological target: T1, Recombinant human leptin binding domain …; test: competitive plate binding assay: immobilized hLBD, biotinylated mouse leptin as ligand, mutein as competitor; remark: listed apart in the source
Description: as §1

Binder	fold increase in affinity as compared to the WT mouse leptin antagonist [1] [fold]	BAF/3 bioassay: fold increase in bioactivity as compared to the WT mouse leptin antagonist [4] [fold]	fold increase in affinity as compared to the WT mouse leptin antagonist [5] [fold]	fold increase in affinity as compared to the WT mouse leptin [5] [fold]	further results
superactive mouse leptin antagonist (SMLA), D23L/L39A/D40A/F41A mouse leptin (ligand, also called D23L MLA; super active MLA) VPIQKVQDDTKTLIKTLVTRINLISHTQSVSAKQRVTGAAAIPGLHPILSLSKMDQTLAVYQQVLTSLPSQNVLQIANDLENLRDLLHLLAFSKSCSLPQTSGLQKPESLDGVLEASLYSTEVVALSRLQGSLQDILQQVDLSPGC	64				
yeast-displayed mouse leptin clone H30 (D23H) (ligand, UniProt P41160 22-167, looked up, not shown: large carriers; small tags and cut ends, mature) VPIQKVQDDTKTLIKTIVTRINHISHTQSVSAKQRVTGLDFIPGLHPILSLSKMDQTLAVYQQVLTSLPSQNVLQIANDLENLRDLLHLLAFSKSCSLPQTSGLQKPESLDGVLEASLYSTEVVALSRLQGSLQDILQQLDVSPEC					Bmax [2]: 847 MFI; Kd [2]: 59.5 nM; Bmax [3]: 741 MFI; Kd [3]: 40.9 nM
mouse leptin antagonist D23G/L39A/D40A/F41A (ligand, mature) AVPIQKVQDDTKTLIKTIVTRINGISHTQSVSAKQRVTGAAAIPGLHPILSLSKMDQTLAVYQQVLTSLPSQNVLQIANDLENLRDLLHLLAFSKSCSLPQTSGLQKPESLDGVLEASLYSTEVVALSRLQGSLQDILQQLDVSPEC	17.5	2.5			
mouse leptin antagonist H15 (D23G, L68M, S97F, S132Y + L39A/D40A/F41A) (ligand, mature; also called H15 (antagonist)) AVPIQKVQDDTKTLIKTIVTRINGISHTQSVSAKQRVTGAAAIPGLHPILSLSKMDQTLAVYQQVLTSMPSQNVLQIANDLENLRDLLHLLAFSKSCFLPQTSGLQKPESLDGVLEASLYSTEVVALSRLQGYLQDILQQLDVSPEC			12.4		
mouse leptin antagonist D23H/L39A/D40A/F41A (ligand, mature; also called H30 (antagonist); D23H MLA) AVPIQKVQDDTKTLIKTIVTRINHISHTQSVSAKQRVTGAAAIPGLHPILSLSKMDQTLAVYQQVLTSLPSQNVLQIANDLENLRDLLHLLAFSKSCSLPQTSGLQKPESLDGVLEASLYSTEVVALSRLQGSLQDILQQLDVSPEC	34	5	34		Luciferase bioassay: fold increase in bioactivity as compared to the WT mouse leptin antagonist [4]: 5.7 fold
recombinant mouse leptin mutein H15 (D23G, L68M, S97F, S132Y), agonist (ligand, mature) AVPIQKVQDDTKTLIKTIVTRINGISHTQSVSAKQRVTGLDFIPGLHPILSLSKMDQTLAVYQQVLTSMPSQNVLQIANDLENLRDLLHLLAFSKSCFLPQTSGLQKPESLDGVLEASLYSTEVVALSRLQGYLQDILQQLDVSPEC				9.7	
mouse leptin antagonist H19 (D23G, T37A, G44D + L39A/D40A/F41A) (ligand, mature; also called H19 (antagonist)) AVPIQKVQDDTKTLIKTIVTRINGISHTQSVSAKQRVAGAAAIPDLHPILSLSKMDQTLAVYQQVLTSLPSQNVLQIANDLENLRDLLHLLAFSKSCSLPQTSGLQKPESLDGVLEASLYSTEVVALSRLQGSLQDILQQLDVSPEC			6.1		
mouse leptin antagonist D23F/L39A/D40A/F41A (ligand, mature) AVPIQKVQDDTKTLIKTIVTRINFISHTQSVSAKQRVTGAAAIPGLHPILSLSKMDQTLAVYQQVLTSLPSQNVLQIANDLENLRDLLHLLAFSKSCSLPQTSGLQKPESLDGVLEASLYSTEVVALSRLQGSLQDILQQLDVSPEC	28	3.7			
mouse leptin antagonist D23K/L39A/D40A/F41A (ligand, mature) AVPIQKVQDDTKTLIKTIVTRINKISHTQSVSAKQRVTGAAAIPGLHPILSLSKMDQTLAVYQQVLTSLPSQNVLQIANDLENLRDLLHLLAFSKSCSLPQTSGLQKPESLDGVLEASLYSTEVVALSRLQGSLQDILQQLDVSPEC	19	3.7			
recombinant mouse leptin mutein H16 (D23G, G112S), agonist (ligand, mature) AVPIQKVQDDTKTLIKTIVTRINGISHTQSVSAKQRVTGLDFIPGLHPILSLSKMDQTLAVYQQVLTSLPSQNVLQIANDLENLRDLLHLLAFSKSCSLPQTSGLQKPESLDSVLEASLYSTEVVALSRLQGSLQDILQQLDVSPEC				20.3	BAF/3 bioassay: fold increase in bioactivity as compared to the WT mouse leptin [4]: 0.8 fold; Luciferase bioassay: fold increase in bioactivity as compared to the WT mouse leptin [4]: 0.9 fold
mouse leptin antagonist D23R/L39A/D40A/F41A (ligand, mature; also called D23R MLA) AVPIQKVQDDTKTLIKTIVTRINRISHTQSVSAKQRVTGAAAIPGLHPILSLSKMDQTLAVYQQVLTSLPSQNVLQIANDLENLRDLLHLLAFSKSCSLPQTSGLQKPESLDGVLEASLYSTEVVALSRLQGSLQDILQQLDVSPEC	51	8.6			
mouse leptin antagonist D23A/L39A/D40A/F41A (ligand, mature) AVPIQKVQDDTKTLIKTIVTRINAISHTQSVSAKQRVTGAAAIPGLHPILSLSKMDQTLAVYQQVLTSLPSQNVLQIANDLENLRDLLHLLAFSKSCSLPQTSGLQKPESLDGVLEASLYSTEVVALSRLQGSLQDILQQLDVSPEC	21	3.3			
recombinant mouse leptin mutein H22 (T12I), agonist (ligand, mature) AVPIQKVQDDTKILIKTIVTRINDISHTQSVSAKQRVTGLDFIPGLHPILSLSKMDQTLAVYQQVLTSLPSQNVLQIANDLENLRDLLHLLAFSKSCSLPQTSGLQKPESLDGVLEASLYSTEVVALSRLQGSLQDILQQLDVSPEC				11.7	
mouse leptin antagonist D23W/L39A/D40A/F41A (ligand, mature) AVPIQKVQDDTKTLIKTIVTRINWISHTQSVSAKQRVTGAAAIPGLHPILSLSKMDQTLAVYQQVLTSLPSQNVLQIANDLENLRDLLHLLAFSKSCSLPQTSGLQKPESLDGVLEASLYSTEVVALSRLQGSLQDILQQLDVSPEC	36	4.2			
recombinant mouse leptin mutein H30 (D23H), agonist (ligand, mature) AVPIQKVQDDTKTLIKTIVTRINHISHTQSVSAKQRVTGLDFIPGLHPILSLSKMDQTLAVYQQVLTSLPSQNVLQIANDLENLRDLLHLLAFSKSCSLPQTSGLQKPESLDGVLEASLYSTEVVALSRLQGSLQDILQQLDVSPEC				35	BAF/3 bioassay: fold increase in bioactivity as compared to the WT mouse leptin [4]: 0.3 fold; Luciferase bioassay: fold increase in bioactivity as compared to the WT mouse leptin [4]: 0.6 fold
recombinant mouse leptin mutein H19 (D23G, T37A, G44D), agonist (ligand, mature) AVPIQKVQDDTKTLIKTIVTRINGISHTQSVSAKQRVAGLDFIPDLHPILSLSKMDQTLAVYQQVLTSLPSQNVLQIANDLENLRDLLHLLAFSKSCSLPQTSGLQKPESLDGVLEASLYSTEVVALSRLQGSLQDILQQLDVSPEC				10.4	BAF/3 bioassay: fold increase in bioactivity as compared to the WT mouse leptin [4]: 0.9 fold; Luciferase bioassay: fold increase in bioactivity as compared to the WT mouse leptin [4]: 1.5 fold
mouse leptin antagonist H12 (S97Y + L39A/D40A/F41A) (ligand, mature; also called H12 (antagonist)) AVPIQKVQDDTKTLIKTIVTRINDISHTQSVSAKQRVTGAAAIPGLHPILSLSKMDQTLAVYQQVLTSLPSQNVLQIANDLENLRDLLHLLAFSKSCYLPQTSGLQKPESLDGVLEASLYSTEVVALSRLQGSLQDILQQLDVSPEC			1.4		
recombinant mouse leptin mutein H12 (S97Y), agonist (ligand, mature) AVPIQKVQDDTKTLIKTIVTRINDISHTQSVSAKQRVTGLDFIPGLHPILSLSKMDQTLAVYQQVLTSLPSQNVLQIANDLENLRDLLHLLAFSKSCYLPQTSGLQKPESLDGVLEASLYSTEVVALSRLQGSLQDILQQLDVSPEC				1.5	
mouse leptin antagonist H22 (T12I + L39A/D40A/F41A) (ligand, mature; also called H22 (antagonist)) AVPIQKVQDDTKILIKTIVTRINDISHTQSVSAKQRVTGAAAIPGLHPILSLSKMDQTLAVYQQVLTSLPSQNVLQIANDLENLRDLLHLLAFSKSCSLPQTSGLQKPESLDGVLEASLYSTEVVALSRLQGSLQDILQQLDVSPEC			11.2		
mouse leptin antagonist H16 (D23G, G112S + L39A/D40A/F41A) (ligand, mature; also called H16 (antagonist)) AVPIQKVQDDTKTLIKTIVTRINGISHTQSVSAKQRVTGAAAIPGLHPILSLSKMDQTLAVYQQVLTSLPSQNVLQIANDLENLRDLLHLLAFSKSCSLPQTSGLQKPESLDSVLEASLYSTEVVALSRLQGSLQDILQQLDVSPEC			11		
